{
  "source": "paper PMC7289600",
  "about": "“Signaling diversity enabled by Rap1-regulated plasma membrane ERK with distinct temporal dynamics” (eLife, 2020)",
  "binders": {"B1": {"name": "Rap1A fused to the donor fluorophore mCerulean3 (Rap1A chain of the dual-chain biosensor Rap1A-FLARE) (natural protein, UniProt P62834 1-184, looked up)", "chain": "MREYKLVVLGSGGVGKSALTVQFVQGIFVEKYDPTIEDSYRKQVEVDCQQCMLEILDTAGTEQFTAMRDLYMKNGQGFALVYSITAQSTFNDLQDLREQILRVKDTEDVPMILVGNKCDLEDERVVGKEQGQNLARQWCNCAFLESSAKSKINVNEIFYDLVRQINRKTPVEKKKPKKKSCLLL", "notes": "Rap1A, GTPase of the Ras family; plasmid provided by Klaus Hahn; source: PC12 cells, transfected (Lipofectamine 2000), in living cells; not shown: mCerulean3, N-terminal, kept"}, "B2": {"name": "Rap1B fused to the donor fluorophore mCerulean3 (Rap1B chain of the dual-chain biosensor Rap1B-FLARE) (natural protein, UniProt P61224 1-184, looked up)", "chain": "B1 chain with C48A, E107D, C139N, E172P, K173G, K175A, P176R, K179S, L182Q", "notes": "Rap1B, GTPase of the Ras family; plasmid provided by Klaus Hahn; source: PC12 cells, transfected (Lipofectamine 2000), in living cells; not shown: mCerulean3, N-terminal, kept"}},
  "molecular_target": "T1, Rap1-binding domain (RBD) from RalGDS fused to the acceptor fluorophore Ypet (second chain of Rap1A/B-FLARE) (UniProt Q12967 798-885)",
  "T1 construct": "also called RalGDS RBD; source: PC12 cells, transfected (Lipofectamine 2000), in living cells",
  "T1 sequence (looked up)": "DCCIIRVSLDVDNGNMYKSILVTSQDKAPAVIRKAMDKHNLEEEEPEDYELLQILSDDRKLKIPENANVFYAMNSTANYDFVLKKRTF",
  "experiment": "FRET or BRET; dual-chain Rap1A/B-FLARE biosensors expressed in living PC12 cells; EGF added at time 0; yellow over cyan (Y/C) emission ratio imaging in HBSS at 37°C; increase abrogated by co-expression of Rap1GAP or by GGTI-298",
  "conditions": "partners not purified",
  "note": "Numbering of substitutions follows the chain as printed.",
  "data": [
    {"binder": "B1", "values": [
      {"measurement": "increase in Y/C emission ratio (FRET) after EGF", "result": 25.4, "unit": "%"}
    ]},
    {"binder": "B2", "values": [
      {"measurement": "increase in Y/C emission ratio (FRET) after EGF", "result": 26, "unit": "%"}
    ]}
  ]
}
